From article PMC9897471 come the findings set out here.

Data set [1] concerns the target T1, GST-BRCA1 BRCT WT (UniProt P38398 1582-1863). Briefly: EMSA. A general note: In EMSA bound probe runs differently from free probe, usually more slowly.
The target in data set [2] is T1, GST-BRCA1 BRCT WT. The experiment in a line: EMSA. The source holds these as a separate data set.

Where two headings read alike, the source gives them in different places.

T1 sequence (P38398 1582-1863): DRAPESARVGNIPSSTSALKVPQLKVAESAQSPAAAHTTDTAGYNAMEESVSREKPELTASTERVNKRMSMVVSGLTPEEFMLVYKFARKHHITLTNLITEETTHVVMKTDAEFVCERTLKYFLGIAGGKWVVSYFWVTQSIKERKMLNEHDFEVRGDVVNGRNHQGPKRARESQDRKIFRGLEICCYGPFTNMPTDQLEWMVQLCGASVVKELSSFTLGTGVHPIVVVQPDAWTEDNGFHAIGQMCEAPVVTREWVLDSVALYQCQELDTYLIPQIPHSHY

B1: non-rRNA bottom ssRNA (ssRNA)
RNA: AUCCCAGCACCAGAUUCAGCAAUUAAGCUCUAAGCCAUGAAUUCAAAUGACCUCUUAUCA
Consider B1, for which, in the data set with GST-BRCA1 BRCT WT [1], the binding result was “binds”.

B2: non-rRNA dsRNA (bottom/top) (dsRNA)
RNA 1: AUCCCAGCACCAGAUUCAGCAAUUAAGCUCUAAGCCAUGAAUUCAAAUGACCUCUUAUCA
RNA 2: UGAUAAGAGGUCAUUUGAAUUCAUGGCUUAGAGCUUAAUUGCUGAAUCUGGUGCUGGGAU
Take B2: the binding result in the data set with GST-BRCA1 BRCT WT [1] is on record as “no binding”.

B3: non-rDNA bottom ssDNA (ssDNA)
DNA: ATCCCAGCACCAGATTCAGCAATTAAGCTCTAAGCCATGAATTCAAATGACCTCTTATCA
In the case of B3, in the data set with GST-BRCA1 BRCT WT [2], the binding result was “binds”.
